From FireProtDB (doi:10.1021/acs.biochem.7b01284)
Values joined by “and” are separate entries in the source; they are usually repeats but may differ in a detail not shown here. Identical values can stand only once.

B1: Geranylgeranylglyceryl phosphate synthase, O26652 (parent)
chain: MKVEDYFHDILRERKIHLTLIDPEEQTPEEAVEIARAAIRGGTDGIMLGGSTTDSSELDNTARALRENIDVPIILFPGNTTGVSRYADAIFFMSLLNSTNPYWIIGAQALGAATVKKMGIEALPMGYLVVEPGGTVGWVGDTKPVPRNKPDIAAAYAMAAEFLGMRLFYLEAGSGAPEHVPEEMIALVKRCTDQILIVGGGIRSGEDAARVAGAGADVVVTGTVVENSDNVEDKIREIVEGMGSV

Variants of: B1
Conditions: Methanothermobacter thermautotrophicus (strain ATCC 29096 / DSM 1053 / JCM 10044 / NBRC 100330 / Delta H); pH 7.5; Thermal; DSC; potassium phosphate buffer; reversible: no; structure 4MM1; whole UniProt chain shown

| Variant | Tm | unfolding enthalpy (calorimetric) |
| --- | --- | --- |
| MKVEDYFHDILRERKIHLTLIDPEEQTPEEAVEIARAAIRGGTDGIMLGGSTTDSSELDNTARALRENIDVPIILFPGNTTGVSRYADAIFFMSLLNSTNPYWIIGAQALGAATVKKMGIEALPMGYLVVEPGGTVGWVGDTKPVPRNKPDIAAAYAMEAEFLGMRLFYLEAGSGAPEHVPEEMIALVKRCTDQILIVGGGIRSGEDAARVAGAGADVVVTGTVVENSDNVEDKIREIVEGMGSV [A159E] | 64 °C | 173 kcal/mol |
| MKVEDYFHDILRERKIHLTLIDPEEQTPEEAVEIARAAIRGGTDGIMLGGSTTDSSELDNTARALRENIDVPIILFPGNTTGVSRYADAIFFMSLLNSTNPYWIIGAQALGAATVKKMGIEALPMGYLVVEPGGTVGWVGDTAPVPRNKPDIAAAYAMAAEFLGMRLFYLEAGSGAPEHVPEEMIALVKRCTDQILIVGGGIRSGEDAARVAGAGADVVVTGTVVENSDNVEDKIREIVEGMGSV [K143A] | – | 100 kcal/mol |
| MKVEDYFHDILRERKIHLTLIDPEEQTPEEAVEIARAAIRGGTDGIMLGGSTTDSSELDNTARALRENIDVPIILFPGNTTGVSRYADAIFFMSLLNSTNPAWIIGAQALGAATVKKMGIEALPMGYLVVEPGGTVGWVGDTKPVPRNKPDIAAAYAMAAEFLGMRLFYLEAGSGAPEHVPEEMIALVKRCTDQILIVGGGIRSGEDAARVAGAGADVVVTGTVVENSDNVEDKIREIVEGMGSV [Y102A] | – | 104 kcal/mol and 108 kcal/mol |
| MKVEDYFHDILRERKIHLTLIDPEEQTPEEAVEIARAAIRGGTDGIMLGGSTTRSSELDNTARALRENIDVPIILFPGNTTGVSRYADAIFFMSLLNSTNPYWIIGAQALGAATVKKMGIEALPMGYLVVEPGGTVGWVGDTKPVPRNKPDIAAAYAMAAEFLGMRLFYLEAGSGAPEHVPEEMIALVKRCTDQILIVGGGIRSGEDAARVAGAGADVVVTGTVVENSDNVEDKIREIVEGMGSV [D54R] | – | 187 kcal/mol and 88 kcal/mol |
| MKVEDYFHDILRERKIHLTLIDPEEQTPEEAVEIARAAIRGGTDGIMLGGSTTDSSELDNTARALRENIDVPIILFPGNTTGVSRYADAIFFMSLLNSTNPYWIIGAQALGAATVKKMGIEALPMGYLVVEPGGTVGAVGDTKPVPRNKPDIAAAYAMAAEFLGMRLFYLEAGSGAPEHVPEEMIALVKRCTDQILIVGGGIRSGEDAARVAGAGADVVVTGTVVENSDNVEDKIREIVEGMGSV [W138A] | – | 106 kcal/mol and 78.2 kcal/mol |

Same assay, conditions: Methanothermobacter thermautotrophicus (strain ATCC 29096 / DSM 1053 / JCM 10044 / NBRC 100330 / Delta H); pH 7.5; Thermal; DSF; potassium phosphate buffer; reversible: no; structure 4MM1; whole UniProt chain shown

| Variant | Tm |
| --- | --- |
| MKVEDYFHDILRERKIHLTLIDPEEQTPEEAVEIARAAIRGGTDGIMLGGSTTDSSELDNTARALRENIDVPIILFPGNTTGVSRYADAIFFMSLLNSTNPYWIIGAQALGAATVKKMGIEALPMGYLVVEPGGTVGWVGDTAPVPRNKPDIAAAYAMAAEFLGMRLFYLEAGSGAPEHVPEEMIALVKRCTDQILIVGGGIRSGEDAARVAGAGADVVVTGTVVENSDNVEDKIREIVEGMGSV [K143A] | 66 °C |
| MKVEDYFHDILRERKIHLTLIDPEEQTPEEAVEIARAAIRGGTDGIMLGGSTTRSSELDNTARALRENIDVPIILFPGNTTGVSRYADAIFFMSLLNSTNPYWIIGAQALGAATVKKMGIEALPMGYLVVEPGGTVGWVGDTKPVPRNKPDIAAAYAMAAEFLGMRLFYLEAGSGAPEHVPEEMIALVKRCTDQILIVGGGIRSGEDAARVAGAGADVVVTGTVVENSDNVEDKIREIVEGMGSV [D54R] | 52.2 °C |
| MKVEDYFHDILRERKIHLTLIDPEEQTPEEAVEIARAAIRGGTDGIMLGGSTTDSSELDNTARALRENIDVPIILFPGNTTGVSEYADAIFFMSLLNSTNPYWIIGAQALGAATVKKMGIEALPMGYLVVEPGGTVGWVGDTKPVPRNKPDIAAAYAMAAEFLGMRLFYLEAGSGAPEHVPEEMIALVKRCTDQILIVGGGIRSGEDAARVAGAGADVVVTGTVVENSDNVEDKIREIVEGMGSV [R85E] | 53.9 °C |
